In patent publication US20070135998A1 one finds Kd data, which are given here for 17 substances.

A word on the Kd: it is the equilibrium constant for the complex coming apart. A low value points to higher affinity.

This experiment concerns the target VLA1 I-domain protein (human) (UniProt P56199). The experiment is described as follows: KinExA, solution phase affinity, scFv. For orientation: Kinetic exclusion samples the free partner from a solution-phase mixture.
Sequence of UniProt P56199 (P56199 173-364 limits assumed): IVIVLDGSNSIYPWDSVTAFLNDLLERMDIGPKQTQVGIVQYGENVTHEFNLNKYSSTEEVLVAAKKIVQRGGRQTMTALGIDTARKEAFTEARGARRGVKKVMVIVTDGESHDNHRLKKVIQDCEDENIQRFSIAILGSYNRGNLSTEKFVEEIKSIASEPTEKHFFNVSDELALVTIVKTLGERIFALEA
The substance AQC2 single chain Fv (original) (scFv) registered a Kd of 25 nM. For “AQC2 single chain Fv mutant, heavy chain D106N (scFv)” the value was 67 nM; for “AQC2 single chain Fv mutant, heavy chain K64D (scFv)”, 6.3 nM.

Regarding “AQC2 single chain Fv mutant, heavy chain K64E (scFv)”, the Kd was determined as 38 nM. Consider “AQC2 single chain Fv mutant, heavy chain K64N (scFv)”, for which the Kd worked out at 4.1 nM. The result for “AQC2 single chain Fv mutant, heavy chain K64Q (scFv)” reads 12 nM; that for “AQC2 single chain Fv mutant, heavy chain L60D (scFv)”, 21 nM. In turn, “AQC2 single chain Fv mutant, heavy chain R31Q (scFv)” gave a Kd of 8.2 nM. For “AQC2 single chain Fv mutant, heavy chain S35N (scFv)” the value was 39 nM.

“AQC2 single chain Fv mutant, heavy chain S35Q (scFv)” returned a Kd of 37 nM. The substance “AQC2 single chain Fv mutant, heavy chain T50V (scFv)” showed a Kd of 14 nM. The substance “AQC2 single chain Fv mutant, heavy chain Y32F (scFv)” yielded a Kd of 34 nM. Regarding “AQC2 single chain Fv mutant, light chain H31R (scFv)”, the Kd came to 31 nM. For “AQC2 single chain Fv mutant, light chain N30V (scFv)” the value was 8.9 nM; for “AQC2 single chain Fv mutant, light chain N52H (scFv)”, 43 nM. For “AQC2 single chain Fv mutant, light chain N52K (scFv)” the value was 49 nM. For “AQC2 single chain Fv mutant, light chain N52R (scFv)” the value was 17 nM.
